From patent US20230192817A1 (ZHUHAI TRINOMAB PHARMACEUTICAL, published 2023)

What was measured:
[1] = biological target: T1, VZV gH/gL protein complex (CAMBRIDGEBIO, Cat No: 01-11-0045) (Varicella-Zoster Virus, UniProt P09260 18-802; P09308 22-159); assay: SPR (Biacore), antibody captured on anti-human IgG (Fc) CM5 chip, gH/gL complex as analyte
T1 construct: also called gHgL-Cambridge
T1 sequence 1: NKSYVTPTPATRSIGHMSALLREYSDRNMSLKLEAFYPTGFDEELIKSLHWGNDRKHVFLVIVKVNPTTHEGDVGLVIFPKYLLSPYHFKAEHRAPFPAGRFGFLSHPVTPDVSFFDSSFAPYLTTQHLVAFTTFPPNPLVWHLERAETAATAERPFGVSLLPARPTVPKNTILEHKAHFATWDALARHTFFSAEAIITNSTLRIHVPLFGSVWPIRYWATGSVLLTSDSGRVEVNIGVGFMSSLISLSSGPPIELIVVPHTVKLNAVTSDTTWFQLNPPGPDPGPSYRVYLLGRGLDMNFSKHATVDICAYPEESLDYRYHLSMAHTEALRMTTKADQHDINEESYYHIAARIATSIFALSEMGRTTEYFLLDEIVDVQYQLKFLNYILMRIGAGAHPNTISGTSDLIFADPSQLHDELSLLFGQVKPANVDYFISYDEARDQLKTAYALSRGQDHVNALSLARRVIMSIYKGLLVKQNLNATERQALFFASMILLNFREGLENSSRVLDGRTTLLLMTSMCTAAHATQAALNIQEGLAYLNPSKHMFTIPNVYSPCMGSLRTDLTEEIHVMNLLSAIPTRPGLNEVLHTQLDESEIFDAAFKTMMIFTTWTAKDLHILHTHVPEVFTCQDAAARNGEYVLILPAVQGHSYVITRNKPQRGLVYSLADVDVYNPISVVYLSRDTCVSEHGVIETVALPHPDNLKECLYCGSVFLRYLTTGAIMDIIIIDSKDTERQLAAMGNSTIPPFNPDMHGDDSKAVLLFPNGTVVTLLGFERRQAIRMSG
T1 sequence 2: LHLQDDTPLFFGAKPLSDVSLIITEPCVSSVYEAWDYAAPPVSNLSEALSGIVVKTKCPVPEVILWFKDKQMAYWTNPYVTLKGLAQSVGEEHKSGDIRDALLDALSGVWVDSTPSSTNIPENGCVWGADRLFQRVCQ

[2] = biological target: T1, VZV gH/gL protein complex …; assay: ELISA, culture supernatant
[3] = biological target: T1, VZV gH/gL protein complex …; assay: ELISA, plate coated with 100 ng/well VZV gH/gL complex, detection Goat-Anti-IgG-Fab-HRP

B1: fully human VZV monoclonal antibody TRN1026 (antibody, V domains shown)
VH: QVQLVQSGAEVKKPGSSVKVSCKASGRTFSSYAYSWVRQAPGQGLEWMGRVIPVLGITNYAPKFQGKVTITVDKVTSTAFLELTGLKSDDTAVYYCARVSDDVLTGALDYWGQGTLVTVSS
VL: QSVLTQPPSVSGSPGQSVTISCTGTRSDVGSHNRVAWFQQSPGTAPKLMIYEVTNRPSGVPDRFSGSKSGNTASLTISGLQAEDEADYYCSSYTSTSTWVFGGGTKLTVL
For B1, the Kd [1] was 2.66 nM, the koff [1] was 0.000274 s⁻¹ and the kon [1] was 103000 M⁻¹ s⁻¹.

B2: antibody variant derived from antibody TRN1026 (antibody, V domains shown)
VH: QVQLVQSGAEVKKPGSSVKVSCKASGRTFSSYAYSWVRQAPGQGLEWMGRVIPVLGITNYAPKFQDKVTITADKVTSTAFLELTGLKSDDTAVYYCARVSDDVLTGALDYWGQGTLVTVSS
VL: QSVLTQPPSVSGSPGQSVTISFTGTRSDVGSHNRVAWFQQSPGTAPKLMIYEVTNRPSGVPDRFSGSKSGNTASLTISGLQAEDEADYYCSSYTSTSTWVFGGGTKLTVL
notes: also called Antibody derived from TRN1026
B2 was tested, and the EC50 [2] was 0.05 µg/mL.

B3: fully human VZV monoclonal antibody TRN1024 (antibody, V domains shown)
VH: QVQLVQSGGGLVQPGGSLRLSCEASGFTFSSYWMSWVRQAPGKGLEWVANIKQDGSEKYYVDSVKGRFSISRDNAKNSLYLQMNSLRVEDTAVYYCAREGGGQGKWRLEYGMDVWGQGTTVIVSS
VL: not shown
In the case of B3, the “EC50 (read off the curve)” value [3] is reported as about 0.6 µg/mL, the Kd [1] is reported as 36.7 nM and the koff [1] is reported as 0.000621 s⁻¹. For the same binder, the kon [1] was 16900 M⁻¹ s⁻¹.

B4: fully human VZV monoclonal antibody TRN1025 (antibody, V domains shown)
VH: QVQLVQSGGGLVQPGGSLRLSCVASGFTFSSYAMTWVRQAPGKGLEWVSTISGSGGSTFYADSVRGRFTISRDNSKNALYLQMNSLRAEDTAVYYCAKDRSYGGNQPFDYWGQGTLVTVSS
VL: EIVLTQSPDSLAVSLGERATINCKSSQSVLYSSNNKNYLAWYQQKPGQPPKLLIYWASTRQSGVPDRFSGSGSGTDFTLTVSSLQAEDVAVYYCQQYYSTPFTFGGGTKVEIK
For B4, the “EC50 (read off the curve)” value [3] was about 0.5 µg/mL, the Kd [1] was 13.4 nM and the koff [1] was 0.000416 s⁻¹. It also gave a kon [1] of 31100 M⁻¹ s⁻¹.
